In the Human Domainome abundance scans (Beltran et al. 2025) one finds abundance fitness data, which are given here for 44 variants.

B1: CD2-associated protein, residues 271 to 331; numbered along this chain, Q9Y5K6 (parent)
chain: KEYCRTLFAYEGTNEDELTFKEGEIIHLISKETGEAGWWRGELNGKEGVFPDNFAVQINEL

± gives the uncertainty stated by the source.

Variants of B1 are the subject of the data set. Description: abundance fitness (aPCA) (normalised: wild type 0, dead -1); higher = more abundant; growth selection in yeast, the domain comes from the species named. As to conditions: Homo sapiens.
As to KEYCRTLFAKEGTNEDELTFKEGEIIHLISKETGEAGWWRGELNGKEGVFPDNFAVQINEL [Y10K], the abundance fitness was -0.167 ± 0.21. KEYCRTLFAVEGTNEDELTFKEGEIIHLISKETGEAGWWRGELNGKEGVFPDNFAVQINEL [Y10V]: the abundance fitness was -0.567 ± 0.16. Regarding KEYCRTLFAYEGTNEDELTFKEGEIIHLISKETGEAGWWRGELCGKEGVFPDNFAVQINEL [N44C], the abundance fitness was -0.273 ± 0.065. Under KEYCRTLFAYEGTNEDELTFKEGEIIHLISKETGEAGWWRGELMGKEGVFPDNFAVQINEL [N44M] stands -0.172 ± 0.23; under KEYCRTLFAYEGTNEDELTFKEGEIIHLISKETTEAGWWRGELNGKEGVFPDNFAVQINEL [G34T], -0.086 ± 0.095. On to KEYCRTLFAYEGTNEDELTFKEGEIIHLISKETMEAGWWRGELNGKEGVFPDNFAVQINEL [G34M], for which the abundance fitness is -0.423 ± 0.13. Under KEYCRTLFAYEGTNEDELTFKEGEIIHLISKETWEAGWWRGELNGKEGVFPDNFAVQINEL [G34W] stands -0.712 ± 0.15; under KEYCRTLFAYEGTNEDELTFKEGEIIHLISKETGEAGWWRGEMNGKEGVFPDNFAVQINEL [L43M], -0.219 ± 0.065. KEYCRTLFAYEGTNEDELTFKEGEIIHLISKETGEAGWWRGEANGKEGVFPDNFAVQINEL [L43A]: the abundance fitness was -0.285 ± 0.062. Regarding KEYCRTLFAYEGTNEDELTFKEGEIIHLISKETGEAGWWRGEQNGKEGVFPDNFAVQINEL [L43Q], the abundance fitness is -0.682 ± 0.13.

KEYCRTLFAYEGTNEDELTFKEGEIIHLISKETGEAGWWRGELNGKEGVFHDNFAVQINEL [P51H]: the abundance fitness was -0.866 ± 0.3. As for KEYCRTLFAYEGTNEDELTFKEGEIIHLISKETGEAGWWRGELNGKEGVFSDNFAVQINEL [P51S], the abundance fitness was -0.56 ± 0.076. For the variant KEYCRTLFAYEGTNEDELTFEEGEIIHLISKETGEAGWWRGELNGKEGVFPDNFAVQINEL [K21E], the abundance fitness was -0.015 ± 0.073. For KEYCRTLFAYEGTNEDELTFNEGEIIHLISKETGEAGWWRGELNGKEGVFPDNFAVQINEL [K21N], the abundance fitness is -0.019 ± 0.14. As to KEYCRTLFAYEGTNEDELTFKRGEIIHLISKETGEAGWWRGELNGKEGVFPDNFAVQINEL [E22R], the abundance fitness is -0.209 ± 0.065.

For the variant KEYCRTLFAYEGTNEDELTFKEGEIIHLISKETGEAGWWRGELNTKEGVFPDNFAVQINEL [G45T], the abundance fitness was -0.746 ± 0.13.

For KEYCRTLFAYEGTNEDELTFKEGEIIHLISKETGEAGWWRGELNHKEGVFPDNFAVQINEL [G45H], the abundance fitness was -0.343 ± 0.19.

Consider KEYCRTLFAYEGTNEDELTFKEGEIIHLISKETGEAGWWRGELNRKEGVFPDNFAVQINEL [G45R], for which the abundance fitness is -0.617 ± 0.087. KEYCRTLFAYEGTNEDELTFKEGEIIHLISKETGEAGWWRGELNGKEGVFPDPFAVQINEL [N53P]: the abundance fitness was -0.365 ± 0.084. The same measure for KEYCRTLFAYEGTNEDELTFKEGEIIHLISKETGEAGWWRGELNGKEGVFPDQFAVQINEL [N53Q]: -0.051 ± 0.092; for KEYCRTLFAYPGTNEDELTFKEGEIIHLISKETGEAGWWRGELNGKEGVFPDNFAVQINEL [E11P]: -0.745 ± 0.14. Take KEYCRTLFAYSGTNEDELTFKEGEIIHLISKETGEAGWWRGELNGKEGVFPDNFAVQINEL [E11S]: the abundance fitness is -0.237 ± 0.074. Regarding KEYCRTLFAYEGTNEDELTFKEGEIIFLISKETGEAGWWRGELNGKEGVFPDNFAVQINEL [H27F], the abundance fitness is -0.26 ± 0.2.

For KEYCRTLFAYEGTNEDFLTFKEGEIIHLISKETGEAGWWRGELNGKEGVFPDNFAVQINEL [E17F], the abundance fitness was -0.53 ± 0.12. As for KEYCRTLFAYEGTNEDELTFKEGEIIHLISKETGEAGWWRGELNGKEGVFPDNWAVQINEL [F54W], the abundance fitness is -0.296 ± 0.13.

KEYHRTLFAYEGTNEDELTFKEGEIIHLISKETGEAGWWRGELNGKEGVFPDNFAVQINEL [C4H]: the abundance fitness is -1.07 ± 0.3.

With KEYKRTLFAYEGTNEDELTFKEGEIIHLISKETGEAGWWRGELNGKEGVFPDNFAVQINEL [C4K], the abundance fitness was -0.64 ± 0.15. Consider KEYCDTLFAYEGTNEDELTFKEGEIIHLISKETGEAGWWRGELNGKEGVFPDNFAVQINEL [R5D], for which the abundance fitness was -0.764 ± 0.16. In the case of KEYCVTLFAYEGTNEDELTFKEGEIIHLISKETGEAGWWRGELNGKEGVFPDNFAVQINEL [R5V], the abundance fitness was -0.439 ± 0.066.

On to KEYCRTLFAYEGTNEDELTFKEGEIIHLISMETGEAGWWRGELNGKEGVFPDNFAVQINEL [K31M], for which the abundance fitness is -0.013 ± 0.25. The same measure for KEYCRTLFAYEGVNEDELTFKEGEIIHLISKETGEAGWWRGELNGKEGVFPDNFAVQINEL [T13V]: -0.083 ± 0.048; for KEYCRTLFAYEGPNEDELTFKEGEIIHLISKETGEAGWWRGELNGKEGVFPDNFAVQINEL [T13P]: -0.594 ± 0.089; for KEYCRTLFAYEGCNEDELTFKEGEIIHLISKETGEAGWWRGELNGKEGVFPDNFAVQINEL [T13C]: 0.038 ± 0.11. Turning to KEYCRTLFAYEGTNEDELTFKEGEIIHLISKETGEAGWWRGELNGKEPVFPDNFAVQINEL [G48P], the abundance fitness is -0.932 ± 0.12. For KEYCRTLFAYEGTNEDELTFKEGEIIHLISKETGEATWWRGELNGKEGVFPDNFAVQINEL [G37T], the abundance fitness is -0.416 ± 0.32. In the case of KEYCRTLFAYEGTNEDELTFKEGEIIHLISKETGEAMWWRGELNGKEGVFPDNFAVQINEL [G37M], the abundance fitness is -0.819 ± 0.17.

For the variant KEYCRTLFAYEGTNEDELTFKEGEIIHLISKETGEAGWWRGELNGKEGVFPDNFIVQINEL [A55I], the abundance fitness was -0.274 ± 0.13. The same measure for KEYCRTLFAYEGTNEDELTFKEGEIIHLISKETGEAGWWRGELNGKEGVFPDNFGVQINEL [A55G]: -0.322 ± 0.093; for KEYCRTLFAYEGTNEDELTFKEGEIIHLISKETGEAGWWRGELNGKEGVFPDNFPVQINEL [A55P]: -0.738 ± 0.14. With KEYCRTLFAYEGTNEDELTFKEGEIIHLISKETGEAGWWRGELNGKEGVFPDNFMVQINEL [A55M], the abundance fitness was -0.886 ± 0.2. For KEYCRTLFAYEGTNEDELTFKEGEIIHLISKETGKAGWWRGELNGKEGVFPDNFAVQINEL [E35K], the abundance fitness came out at 0.069 ± 0.08. The same measure for KEYCRTLFAYEGTNEDELTFKEGEIIHLISKETGVAGWWRGELNGKEGVFPDNFAVQINEL [E35V]: 0.032 ± 0.099; for KEYCRTLFAYEGTNEDELTFKEGEHIHLISKETGEAGWWRGELNGKEGVFPDNFAVQINEL [I25H]: -0.448 ± 0.16. For KEYCRTLFAYEGTNEDELTFKEGEKIHLISKETGEAGWWRGELNGKEGVFPDNFAVQINEL [I25K], the abundance fitness was -0.35 ± 0.1.
